Measurements published in the supplement of paper PMC7877785.
± gives the uncertainty stated by the source.

Experiment: self-splicing fitness, log relative to wild type (ln ratio); higher = more splicing; Tetrahymena group I intron in knt gene, E. coli kanamycin selection, DiMSum; sequences stand for … in CUCUCU…GGAGGGAAAAGUUAUCAGGCAUGCACCUGGUAGCUAGUCUUUAAACCAAUAGAUUGCAUCGGUUUAAAAGGCAAGACCGUCAAAUUGCGGGAAAGGGGUCAACAGCCGUUCAGUACCAAGUCUCAGGGGAAACUUUGAGAUGGCCUUGCAAAGGGUAUGGUAAUAAGCUGACGGACAUGGUCCUAACCACGCAGCCAAGUCCUAAGUCAACAGAUCUUCUGUUGAUAUGGAUGCAGUUCACAGACUAAAUGUCGGUCGGGGAAGAUGUAUUCUUCUCAUAAGAUAUAGUCGGACCUCUCCUUAAUGGGAGCUAGCGGAUGAAGUGAUGCAACACUGGAGCCGCUGGGAACUAAUUUGUAUGCGAAAGUAUAUUGAUUAGUUUUGGAGUACUCGUGGUCG
In short: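 Library with all eight P1ex-region intron nucleotides randomised, intron inside the knt kanamycin-resistance gene on pET-22b(+), in E. coli BL21(DE3). Cells grew overnight at 37°C or 30°C on LB agar with or without 25 μg/mL kanamycin (plus 100 μg/mL carbenicillin, 50 μM IPTG, 0.2% rhamnose), in six replicate transformations. Pooled colonies were amplicon-sequenced on Illumina HiSeq 2500. DiMSum fitness is the error-weighted combination of wild-type-normalised replicate fold changes, kanamycin versus none.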

Sequence	self-splicing fitness (ln) (30 °C)	self-splicing fitness (ln) (37 °C)
GUGUAGCAAUAUUACGAUCC	-0.838 ± 0.21	-0.041 ± 0.46
GUGUAGCAAUAUUACGCCGG	-2.93 ± 0.27	-2.16 ± 0.38
GUGUAGCAAUAUUACGCUCU	-1.72 ± 0.23	-0.839 ± 0.22
GUGUAGCAAUAUUACGGCUA	-1.84 ± 0.34	-2.77 ± 0.32
GUGUAGCAAUAUUACGGUGG	-3.98 ± 0.35	-3.36 ± 0.31
GUGUAGCAAUAUUACGUAAC	-1.66 ± 0.14	-0.0998 ± 0.14
GUGUAGCAAUAUUACGUCAU	-3.23 ± 0.2	-2.63 ± 0.17
GUGUAGCAAUAUUACGUCCC	-0.132 ± 0.21	-0.385 ± 0.23
GUGUAGCAAUAUUACGUCUA	-1.13 ± 0.24	0.254 ± 0.23
GUGUAGCAAUAUUACGUCUG	-1.08 ± 0.17	-1.74 ± 0.27
GUGUAGCAAUAUUACGUUCG	-1.65 ± 0.091	-0.693 ± 0.11
GUGUAGCAAUAUUACGUUGU	-3.02 ± 0.28	-2.17 ± 0.21
GUGUAGCAAUAUUACGUUUU	-3.32 ± 0.16	-1.45 ± 0.12
GUUAAGCAAUAUUACGAAUG	-2.32 ± 0.24	-1.59 ± 0.21
GUUAAGCAAUAUUACGAGAG	-3.24 ± 0.2	-2.26 ± 0.2
GUUAAGCAAUAUUACGCACG	-0.281 ± 0.18	-0.714 ± 0.18
GUUAAGCAAUAUUACGCAUA	-0.993 ± 0.091	-0.274 ± 0.11
GUUAAGCAAUAUUACGCCCU	-0.813 ± 0.14	-0.242 ± 0.11
GUUAAGCAAUAUUACGCUUG	-2.28 ± 0.14	-0.983 ± 0.15
GUUAAGCAAUAUUACGGGAU	-2.31 ± 0.14	-0.169 ± 0.14
GUUAAGCAAUAUUACGGGCU	-4.09 ± 0.34	-1.85 ± 0.2
GUUAAGCAAUAUUACGGGGG	-3.44 ± 0.34	-2.67 ± 0.27
GUUAAGCAAUAUUACGGUGU	-1.58 ± 0.11	-0.8 ± 0.12
GUUAAGCAAUAUUACGUCCC	0.552 ± 0.49	

Sequence	self-splicing fitness (ln) (30 °C)	self-splicing fitness (ln) (37 °C)
GUUAAGCAAUAUUACGUGAG	-0.109 ± 0.052	-0.0542 ± 0.098
GUUCAGCAAUAUUACGACCA	-0.964 ± 0.14	-0.856 ± 0.13
GUUCAGCAAUAUUACGACGA	-1.26 ± 0.21	-0.637 ± 0.18
GUUCAGCAAUAUUACGACUG	-3.57 ± 0.28	-0.988 ± 0.14
GUUCAGCAAUAUUACGAGGC	-2.38 ± 0.48	-1.27 ± 0.2
GUUCAGCAAUAUUACGAUUG	-0.497 ± 0.093	-0.904 ± 0.15
GUUCAGCAAUAUUACGCACU	-0.633 ± 0.085	0.537 ± 0.12
GUUCAGCAAUAUUACGCAGG	-1.35 ± 0.14	-1.28 ± 0.17
GUUCAGCAAUAUUACGCGAG	-0.511 ± 0.11	-0.381 ± 0.11
GUUCAGCAAUAUUACGCGAU	-2.39 ± 0.13	-2.74 ± 0.24
GUUCAGCAAUAUUACGCUAG	-0.585 ± 0.073	-0.102 ± 0.093
GUUCAGCAAUAUUACGGAUC	-1.33 ± 0.098	-0.366 ± 0.1
GUUCAGCAAUAUUACGGAUG	-0.518 ± 0.081	0.107 ± 0.085
GUUCAGCAAUAUUACGGAUU	-0.537 ± 0.092	0.247 ± 0.14
GUUCAGCAAUAUUACGGCUC	0.0792 ± 0.12	-0.018 ± 0.12
GUUCAGCAAUAUUACGGGUC	-1.11 ± 0.11	-1.35 ± 0.12
GUUCAGCAAUAUUACGGGUU	-1.65 ± 0.089	-0.108 ± 0.083
GUUCAGCAAUAUUACGGUGC	-1.34 ± 0.14	-0.357 ± 0.12
GUUCAGCAAUAUUACGUAAA	0.0969 ± 0.077	0.494 ± 0.11
GUUCAGCAAUAUUACGUAGG	-0.609 ± 0.082	0.163 ± 0.1
GUUCAGCAAUAUUACGUAUA	-0.905 ± 0.15	-1.1 ± 0.17
GUUCAGCAAUAUUACGUAUU	-0.531 ± 0.057	-0.576 ± 0.074
GUUCAGCAAUAUUACGUCUU	-0.624 ± 0.056	-0.758 ± 0.064
